According to publication PMC5866929:

B1: O1 operator 40 bp (dsDNA)
DNA 1: TGTTGTGTGGAATTGTGAGCGGATAACAATTTCACACAGG
DNA 2: CCTGTGTGAAATTGTTATCCGCTCACAATTCCACACAACA
B2: Oscram 40 bp (dsDNA)
DNA 1: GTCATAAGTATCGTGAACTGCTGAGAGTGCTAGCGTTAGT
DNA 2: ACTAACGCTAGCACTCTCAGCAGTTCACGATACTTATGAC

Experiments:
[1] = biological target: wild-type LacI (UniProt P03023 1-360); test: EMSA
[2] = biological target: T1, His6-LacI-59 (UniProt P03023 59-360, del1-58); test: EMSA
[3] = biological target: T1, His6-LacI-59; test: filter binding
[4] = biological target: His6-LacI-51 (UniProt P03023 51-360, del1-50); test: filter binding
Sequence of His6-LacI-51 (P03023 51-360, stated change not applied): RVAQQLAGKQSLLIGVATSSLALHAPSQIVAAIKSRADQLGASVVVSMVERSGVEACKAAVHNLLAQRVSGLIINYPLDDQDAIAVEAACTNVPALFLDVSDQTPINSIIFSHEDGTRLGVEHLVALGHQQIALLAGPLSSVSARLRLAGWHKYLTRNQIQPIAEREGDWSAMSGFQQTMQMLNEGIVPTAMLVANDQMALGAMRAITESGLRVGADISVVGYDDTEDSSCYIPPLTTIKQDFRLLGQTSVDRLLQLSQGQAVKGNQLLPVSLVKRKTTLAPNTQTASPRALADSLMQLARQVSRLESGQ

T1 sequence (P03023 59-360, stated change not applied): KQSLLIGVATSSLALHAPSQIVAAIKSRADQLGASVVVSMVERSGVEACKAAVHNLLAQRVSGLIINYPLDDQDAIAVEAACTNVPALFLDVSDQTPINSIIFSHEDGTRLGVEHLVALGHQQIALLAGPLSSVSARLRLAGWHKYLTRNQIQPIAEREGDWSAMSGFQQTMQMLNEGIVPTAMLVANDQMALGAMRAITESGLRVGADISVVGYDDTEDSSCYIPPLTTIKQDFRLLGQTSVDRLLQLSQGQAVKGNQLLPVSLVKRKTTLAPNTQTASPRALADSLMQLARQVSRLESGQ
Sequence of wild-type LacI (P03023 whole entry): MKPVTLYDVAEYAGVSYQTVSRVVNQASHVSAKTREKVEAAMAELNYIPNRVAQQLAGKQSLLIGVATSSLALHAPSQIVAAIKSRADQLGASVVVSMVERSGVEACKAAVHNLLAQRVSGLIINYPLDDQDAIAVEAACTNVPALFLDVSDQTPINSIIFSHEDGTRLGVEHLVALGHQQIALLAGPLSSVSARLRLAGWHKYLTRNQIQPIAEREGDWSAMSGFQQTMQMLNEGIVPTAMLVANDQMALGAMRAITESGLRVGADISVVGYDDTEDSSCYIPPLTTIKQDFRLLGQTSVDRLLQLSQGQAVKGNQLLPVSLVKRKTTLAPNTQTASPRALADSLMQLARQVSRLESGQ

| Binder | binding result [1] | binding result [2] | binding result [3] | apparent K (half saturation) [4] |
| --- | --- | --- | --- | --- |
| B1 | binds | no binding |  |  |
| B2 |  |  | no binding | ~5 µM |
